Measurements published in the supplement of paper PMC12042874.
± gives the uncertainty stated by the source.

assay: amyloid nucleation score (Sup35N fusion, yeast selection) (log enrichment); library NNK1; higher = more nucleation; inactive = no reads after selection
Procedure, shortened: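 Plasmid inserts were Illumina-sequenced at input and output from psi-negative yeast expressing Sup35N fused to peptides of 20 random codons. The yeast were induced with 100 μM copper sulfate for 24 hours and grown 7 days at 30°C on medium lacking adenine and uracil, and sequences with under 100 input reads were excluded. Nucleation score is the DiMSum log enrichment of output over input reads, centred on the mode score of non-aggregating sequences.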

Substance	amyloid nucleation score
TVRCSMGYILYRWVHSRLGR	1.4 ± 0.48
TVRFHYQGFTVS	-0.236 ± 0.61
TVRGSAFLIKWKLI	-0.86 ± 0.9
TVRLTRTRV	-0.474 ± 0.86
TVRNYHFVLV	1.46 ± 0.33
TVSKLSCYNVVDPTIWNLSD	0.236 ± 0.69
TVSLGVAAVMFPR	0.95 ± 0.36
TVSMSMAYHVK	2.27 ± 0.25
TVTGIAKFHVVSQANY	-0.3 ± 0.98
TVVTYVRNNFKEVHSCVEVS	-0.607 ± 0.47
TVYYFG	1.18 ± 0.19
TWIKILSGPLYKFCI	-0.2 ± 0.56
TWIMIGDHFVAGLGYRERD	-0.893 ± 0.43
TWLQPLNRTMNWMTSTAGFR	inactive
TWNNKFRPLVEHGYSAS	-0.526 ± 0.85
TWSYGLASDEVGPDAVVIVY	0.495 ± 1
TWYHGSRMSLRVTGRILQCG	-0.43 ± 1.1
TYALITADI	0.193 ± 0.18
TYARLLNCSAYSTTF	0.048 ± 0.55
TYDGSKAIVALSKGNKN	0.915 ± 0.51
TYEYTRWGWYYLS	1.11 ± 0.12
TYGEYRTYISYH	0.389 ± 0.43

Substance	amyloid nucleation score
TYGMYFLFSYVSVCQY	2.3 ± 0.13
TYHVSEV	-0.175 ± 0.24
TYNEDEVPCLMLASDVRFSS	0.372 ± 0.64
TYQTVSKKSEFIMPFGLCSN	-0.011 ± 0.17
TYRNHYCKDKAL	0.175 ± 0.75
TYRVLGWMYTCW	-0.809 ± 1.1
TYSGYFVLAIISPRLDRLFT	-1.1 ± 0.58
TYSRARAQSIMFVRLFKACL	0.643 ± 0.34
TYTGFYCVRKLILVRRVSVW	-0.897 ± 1.6
TYVSNNPKGNPTLHAYFSF	0.68 ± 0.97
TYWNVLNAVGQALPSIYGIG	0.955 ± 0.63
TYWQVARTSPSF	0.547 ± 0.33
TYWYSHINFLYYIASFVWSP	inactive
TYYAAMRDGFVYHTKGLMAS	-0.209 ± 1
VADAPMR	0.944 ± 0.9
VAIRTKPLYLDEYIFMDHMP	0.459 ± 0.68
VAITCLKIANGDRGVLQTLC	0.264 ± 0.86
VAPVEYICELTLWA	-1.22 ± 2.7
VARTW	0.602 ± 0.57
VATYLLDHVYLNSCQSHCAM	1 ± 0.35
VAWSPLRSSKPGTLSTVGDT	0.83 ± 1.1
VCHAVRISISSSASTLAE	-0.122 ± 0.33

Substance	amyloid nucleation score
VCIECTVAVKFHGYMRHSCC	1.09 ± 0.54
VCLLHNIVKGFARYINSHK	0.423 ± 0.5
VCLVVEIG	1.04 ± 0.93
VCSRLDSEQHDHECASQELM	0.106 ± 0.99
VCTCIFRFQFLILCVRVCEL	0.293 ± 0.85
VCVQILAASTWM	0.844 ± 0.42
VCWLGIKCVRVISNWLCAQS	-1.04 ± 1.6
VCYAKTAVFSMCGFIWSR	0.163 ± 0.77
VDGGMLSHYYYC	0.258 ± 0.23
VDGLHLNSYYEPVSMMSIVV	-0.336 ± 0.43
VDISIVWDVPHQVLTGGFY	-0.531 ± 0.29
VDLILRRFEMRSDSLFGLWE	-0.481 ± 0.58
VDNNARDTSVGSALENMWVL	1.16 ± 0.62
VDPAD	0.553 ± 0.43
VDPYQVNYLNKLVTENYRVS	0.097 ± 0.33
VDRFEVLTYLKE	-0.175 ± 1
VDRVGIQYVLEWCSRRSGQV	0.04 ± 1.4
VDVHVGCRTIRL	0.034 ± 0.32
VECVSVQRFGAQCLSCYPSW	-0.07 ± 0.55
VEFYRYFGWCPNYLPQHQWL	-0.148 ± 0.56
VENTPSCSDISSDLMGREIH	-0.87 ± 0.35
